No end group written: not given here.

The values below come from patent publication US20140221287A1 (AstraZeneca / MedImmune, published 2014).

Experiment [1] has as its target T1, amylin receptor in membranes prepared from the nucleus accumbens portion of the brain (rat) (rat).
T1 construct: whole, on cells; Native tissue membranes
Nature of the experiment: displacement of 125I-rat amylin from rat nucleus accumbens membranes. The method, then: Plate was incubated for 1 hour at room temperature on a shaker. Plate was dried for 1.5 hours at 50° C., then overnight at room temperature.
Receptor binding activity can be expressed, for example in Table 3, as an IC₅₀ value, calculated from the raw data using an iterative curve-fitting program using a 4-parameter logistic equation (PRISM®, GraphPAD Software, La Jolla, Calif.), as known in the art.

Experiment [2] has as its target T2, human amylin receptor 3 (AMY3) (human, UniProt P30988 25-474; O60896 24-148).
T2 sequence (looked up) 1: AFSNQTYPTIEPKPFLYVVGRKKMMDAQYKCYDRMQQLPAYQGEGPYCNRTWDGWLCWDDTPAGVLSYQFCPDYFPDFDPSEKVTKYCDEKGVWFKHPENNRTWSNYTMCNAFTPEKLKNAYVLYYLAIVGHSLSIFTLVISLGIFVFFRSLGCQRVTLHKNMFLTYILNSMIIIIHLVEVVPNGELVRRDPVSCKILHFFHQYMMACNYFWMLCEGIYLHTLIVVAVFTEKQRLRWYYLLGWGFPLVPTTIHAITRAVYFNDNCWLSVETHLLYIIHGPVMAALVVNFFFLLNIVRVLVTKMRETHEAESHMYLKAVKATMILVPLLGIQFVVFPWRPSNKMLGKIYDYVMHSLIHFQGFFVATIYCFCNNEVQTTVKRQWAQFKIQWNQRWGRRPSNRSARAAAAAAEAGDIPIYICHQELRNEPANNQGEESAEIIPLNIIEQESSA
T2 sequence (looked up) 2: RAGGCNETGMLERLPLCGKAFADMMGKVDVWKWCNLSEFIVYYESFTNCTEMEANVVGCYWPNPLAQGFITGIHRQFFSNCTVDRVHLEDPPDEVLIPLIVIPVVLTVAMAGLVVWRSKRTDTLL
Nature of the experiment: cell-based or functional assay.

Experiment [3] has as its target T2, human amylin receptor 3 (AMY3). Nature of the experiment: displacement of 125I-rat amylin from crude membranes of HEK293 cells expressing human AMY3 (hCalcR + RAMP3). How it is done: The crude membranes were incubated with 20 pM ¹²⁵I. (Perkin Elmer Cat#NEX4480) (2000 Ci/mmol) and increasing concentration of test peptide. […] The Unifilter® plates were washed several times using ice cold PBS using a MicroMate 96 Cell Harvester (Perkin Elmer).
The potency (IC₅₀) of test peptide was determined by the analysis of a concentration-response curve using non-linear regression analysis fitted to a 4-parameter curve. Binding affinities were calculated using GraphPad Prism® software (GraphPad Software, Inc., San Diego, Calif.).

The IC50 is the point on the concentration scale where inhibition reaches its midpoint. KCNTATCATQRLANFLVRSSNNLGPVLPPTNVGSNTY-NH2 (ends and bridges not checked, also called Compound 1) [Cmpd 1]: in experiment [1], the IC50 is 0.1 nM.
CNTATCATQRLANFLVHSSNNFGPK(mPEG40KD)LPPTNVGSNTY-NH2 (ends and bridges not checked, also called Compound 29) [Cmpd 29, [K^26(mPEG40KD)]-Cmpd 12]: in experiment [2], the “EC50 (nM), cAMP accumulation (HTRF)” value is 0.114 nM. Further, the IC50 was 60 nM in experiment [3] and 39 nM in experiment [1].
As for CNTATCATQRLANFLVK(mPEG40KD)SSNNFGPILPPTNVGSNTY-NH2 (ends and bridges not checked, also called Compound 40) [Cmpd 40, [K^18(mPEG40KD)]-Cmpd 37], the “EC50 (nM), cAMP accumulation (HTRF)” value in experiment [2] is 0.85 nM. In addition, in experiment [3], the IC50 was 238 nM.
For CNTATCATQRLANFLVHSSK(mPEG40KD)NFGPILPPTNVGSNTY-NH2 (ends and bridges not checked, also called Compound 28) [Cmpd 28, [K^21(mPEG40KD)]-Cmpd 11], the “EC50 (nM), cAMP accumulation (HTRF)” value in experiment [2] came to 2.58 nM. Moreover, the IC50 in experiment [3] was 388 nM; in experiment [1] it was 131 nM.
For CNTATCATQRLANFLVHSSNNFGPILPK(mPEG40KD)TNVGSNTY-NH2 (ends and bridges not checked, also called Compound 36) [Cmpd 36, [K^29(mPEG40KD)]-Cmpd 18], in that order: 0.159 nM, 47 nM and 27 nM.
As for CNTATCATQRLANFLVHSSNNFGPILPPTNVGK(mPEG40KD)NTY-NH2 (ends and bridges not checked, also called Compound 41) [Cmpd 41, [K^34(mPEG40KD)]-Cmpd 38], the “EC50 (nM), cAMP accumulation (HTRF)” value in experiment [2] was 0.034 nM. The IC50 in experiment [3] is 77 nM.
Consider CNTATCATQRLANFLVHSSNNFGPIK(mPEG40KD)PPTNVGSNTY-NH2 (ends and bridges not checked, also called Compound 34) [Cmpd 34, [K^27(mPEG40KD)]-Cmpd 16], for which the “EC50 (nM), cAMP accumulation (HTRF)” value in experiment [2] is 0.296 nM. In addition, the half-inhibitory concentration (IC50) in experiment [3] was 87 nM; in experiment [1], 51 nM.
As to CNTATCATQRLANFLVHSSNNFK(mPEG40KD)PILPPTNVGSNTY-NH2 (ends and bridges not checked, also called Compound 32) [Cmpd 32, [K^24(mPEG40KD)]-Cmpd 14], in experiment [2], the “EC50 (nM), cAMP accumulation (HTRF)” value came to 0.598 nM. Also, the IC50 in experiment [3] was 111 nM; in experiment [1] it was 79 nM.
As to CNTATCATQRLANFLVHSSNNFGPILPPTK(mPEG40KD)VGSNTY-NH2 (ends and bridges not checked, also called Compound 30) [Cmpd 30, [K^31(mPEG40KD)]-Cmpd 13], the “EC50 (nM), cAMP accumulation (HTRF)” value in experiment [2] turned out to be 0.145 nM. In addition, the figures for the IC50 in experiment [3] and in experiment [1] were 80 nM and 61 nM, respectively.
For CNTATCATQRLANFLVHSSNNFGPILK(mPEG40KD)PTNVGSNTY-NH2 (ends and bridges not checked, also called Compound 35) [Cmpd 35, [K^28(mPEG40KD)]-Cmpd 17], in that order: 0.295 nM, 46 nM and 53 nM.
For CNTATCATQRLANFLVHSSNNFGK(mPEG40KD)ILPPTNVGSNTY-NH2 (ends and bridges not checked, also called Compound 33) [Cmpd 33, [K^25(mPEG40KD)]-Cmpd 15], in that order: 0.126 nM, 48 nM and 31 nM.
In the case of CNTATCATQRLANFLVHSSNNFGPILPPTNVGSK(mPEG40KD)TY-NH2 (ends and bridges not checked, also called Compound 42) [Cmpd 42, [K^35(mPEG40KD)]-Cmpd 39], in experiment [2], the “EC50 (nM), cAMP accumulation (HTRF)” value amounted to 0.122 nM. For the same molecule, in experiment [3], the IC50 was 143 nM.
As to CNTATCATQRLANFLVHSSNNFGPK(Y‑shaped‑mPEG40KD)LPPTNVGSNTY-NH2 (ends and bridges not checked, also called Compound 31) [Cmpd 31, [K^26(Y-shaped-mPEG40KD)]-Cmpd 12], the “EC50 (nM), cAMP accumulation (HTRF)” value in experiment [2] worked out at 2.56 nM. In addition, the 50% inhibitory concentration (IC50) was 1130 nM in experiment [3] and 132 nM in experiment [1].
